Reference: the supplement of paper PMC9170038

System: MS2 coat protein
Experiment: apparent KD of MS2 coat protein; designed switch direction (-1 OFF switch, 1 ON switch): -1; higher = weaker reporter binding
Summary of the method: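 The reported apparent KD is a per-design median over clusters, from curve fits of normalised cluster fluorescence. Protein titrations used SNAP-549-labelled MS2 coat protein, doubled from 0.7 or 1.5 nM to 3 µM, in Tris-HCl pH 7.5 buffer with KCl, MgCl2, BSA, DTT, tRNA and Tween-20, with no input, 200 uM small-molecule ligand, or an oligonucleotide input. The RNA switches were transcribed on Illumina chips by stalled E. coli RNA polymerase.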

[1] = input ligand: microRNA oligo, concentration not stated
[2] = Eterna round: R95, input ligand: microRNA oligo, concentration not stated

Row | Sequence | apparent KD of MS2 coat protein (input ligand: FMN 200 uM) [nM] | apparent KD of MS2 coat protein [1] [nM] | apparent KD of MS2 coat protein (input ligand: none) [nM] | apparent KD of MS2 coat protein [2] [nM] | apparent KD of MS2 coat protein (Eterna round: R95, input ligand: FMN 200 uM) [nM] | apparent KD of MS2 coat protein (Eterna round: R95, input ligand: none) [nM]
1 | CAGUACUGAGGAUAUACAUGAGGAUCACCCAUGUGUUCCAGCUAGGAAACUAGCAAGAGUAGAAGGCAGUACUG [salish99_ex3_r3_066] (Eterna round: R96, puzzle: Exclusion 3) | 543 | 18.5 | 22.9 |  |  | 
2 | AGCUAGUCAGGAUAUUCUAAUAAUUACAUGAGGAUCACCCAUGUGAAUAGACAAGGGUGUGAAGAAGGGACUAGCG [Omei Ex5 A5] (Eterna round: R97, puzzle: Exclusion 5) | 58.3 |  | 366 |  |  | 
3 | GUUAACGAAGAGGAUAUAUGAUAUCAAAGCUUCAUAGAAGGCUUCACAUGAGGAUCACCCAUGUGAUCUUCAAU [jl-ex6-4.08 ViennaUCT mod] (Eterna round: R97, puzzle: Exclusion 6) | 232 |  | 42.6 |  |  | 
4 | AACCUGAGGCUUUGCUUUAGGUGUACAUGAGGAUCACCCAUGUAGGAUAUGGUAGGCUUUGCUUACCAGAAGGACAUAAUGAUG [JL ENG3 1.16] (Eterna round: R96, puzzle: Exclusion NG 3) | 81.1 | 30.6 | 55.2 |  |  | 
5 | AACCAGCGAGGAUAUGCUUGCGCGUGUUCUGGUUGUAAUCGACUUGAGGAUCACCCAAGUAGAAGGCGCUGCCG [EX2 #51] (Eterna round: R97, puzzle: Exclusion 2) | 100 |  | 50.9 |  |  | 
6 | CGCCAUCGAGUGAGGAUAUCAGGUAAAGGUGUACAUGAGAAGGCACUUGAGGAUCACCCAAGUAUUAAAGAAAA [Mareat] (Eterna round: R97, puzzle: Brourd's mod of Exclusion 4) | 356 |  | 48.3 |  |  | 
7 | GGCCUUCCGCAAGCUUUUUACAUGAGGAUCACCCAUGUGGUUUUUAGUCUUAUGUUCGGGCCCGUGUGGGCUCGGGC [-25.5, -46.5, A 13%] (Eterna round: R97, puzzle: Sensor, turn-off variant 1) | 28.4 |  | 29 |  |  | 
8 | AAAAAAUACAUGAGGAUCACCCAUGUAGAGUGGGAAGAGAGAUAGGAUAUGAUGUGAGAAUCAUAUCAGAAGGAUCGAGACUCA [AK ExNG3-2.2] (Eterna round: R96, puzzle: Exclusion NG 3) | 143 | 110 | 139 |  |  | 
9 | GCAACGAGAGGAUAUGCUUAACGACCGGCGGAAGCGGAUCCACAUGAGGAUCACCCAUGUAGAAGGCUCGGACC [Eternabot (Original) Solution 24] (Eterna round: R97, puzzle: Exclusion 2) | 35.8 |  | 27.4 |  |  | 
10 | AAUAACAGAGGAUAUACUGUUUUAUGUGUUUAUUAUUUUAAACAUGAGGAUCACCCAUGUAGAAGGCUGAAUAA [JMF 13] (puzzle: Exclusion 2) |  |  |  | 37 |  | 
11 | ACAAGCUUAAAAGGUGAUAACAUGAGGAUCACCCAUGUUCGUCUUAUAAAAAUAAAAAUAAAAAAUAAAAAAUAAAA [Sensor V2: 61] (Eterna round: R96, puzzle: Sensor v2, turn-off variant) | 23.1 | 114 | 24.2 |  |  | 
12 | CAGUACUGAGGAUAUACAUGAGGAUCACCCAUGUGUUCCAGCUAGGAGACUAGCAAAAGUAGAAGGCAGUACUG [salish99_ex3_r3_074] (Eterna round: R96, puzzle: Exclusion 3) | 523 | 20 | 25.1 |  |  | 
13 | AGCUGUGGCCGAGGAUAUCUAACAAUCCUAACCGAAAUAUAAUCGGACAUGAGGAUCACCCAUGUAGAGAAGGCGGUCUCAGCA [Eli eng2 - 074] (Eterna round: R96, puzzle: Exclusion NG 2) |  | 68.1 |  |  |  | 
14 | GUCCUGCAGCUUUGCUGUAGGCGUACAUGAGGAUCACCCAUGUAGGAUAUGGUAGGCUUUGCUUACUAGAAGGAUAGAGUGAUC [JL EXNG3 1.28] (Eterna round: R96, puzzle: Exclusion NG 3) | 43.1 | 7.08 | 38.4 |  |  | 
15 | UCACGGGACUGAGGAUAUACAUCAACAAUGGUUGUAGAAGGCAGAAGGUUGAAUCAUAUACAAAACAUGAGGAUCACCCAUGUA [JR_ExcNG1_Sub032] (Eterna round: R96, puzzle: Exclusion NG 1) | 23 | 23.8 | 26.2 |  |  | 
16 | CAAUAACAAGCGAGAUCCUACAUGAGGAUCACCCAUGUGCUCGUCUUAUAAGGUACUGUGACGAUAGUCACGGUACC [Mat - Sensor, turn-off var - Eli Mod - D97] (Eterna round: R97, puzzle: Sensor, turn-off variant 1) | 18.9 |  | 19.6 |  |  | 
17 | UUUUUAUAUGAAGGAUAUACUUAACAUGAGGAUCACCCAUGUGGUGUUGUGAGUGAGUGAGUUUAGUAGAAGGUCAAUAAUUUU [JMF's solution 9] (Eterna round: R96, puzzle: Exclusion NG 2) | 996 | 180 | 286 |  |  | 
18 | UACAUGAGGAUCACCCAUGUUUUGUCGUGUAUGGUAUUUAUCUAGGAUAUCGUUUUAUUUAACCACGAGAAGGAGAGUAUCAAU [MOD2 Solution 21 by JMF] (Eterna round: R96, puzzle: Exclusion NG 3) |  | 33.9 | 39.7 |  |  | 
19 | UACAUGAGGAUCACCCAUGUUUUGUCGUGUAUGGUAUUUAUCUAGGAUAUCAAUCUAUUUAAUUAUGAGAAGGAGAAUAUUAAU [JMF's solution 53] (Eterna round: R96, puzzle: Exclusion NG 3) | 37.2 | 32.5 | 39.3 |  |  | 
20 | GUAAAUCAUGUAGGAUAUGCAUAGCAAAGCUAUGCAGAAGGACAUGAGGAUCACCCAUGUCAUUCCGUCUGGAGACAGACGGAA [Mat - Exclusion NG 1 - Mod of JL - D59] (Eterna round: R96, puzzle: Exclusion NG 1) | 121 | 22 | 32.2 |  |  | 
21 | GAGCUAUGAGGAUAUGCAUAUAUACGGAUUCGUGUAGUACUACAUGAGGAUCACCCAUGUAGAAGGCGUGGCUG [JL-ex2-2.03 mat747 mod] (puzzle: Exclusion 2) |  |  |  | 13.2 |  | 
22 | AAAAAAAGACAAGAGGAGAUUCGUCUUAAAAAUCCUCAAACAUGAGGAUCACCCAUGUAAAAUGAUCGAAAGAUCAA [Mat - Sensor v2 - ver2 - JL mod - D39] (Eterna round: R96, puzzle: Sensor v2, turn-off variant 2) | 25.7 | 24 | 29.2 |  |  | 
23 | UUUUAGAGAGGAUAUAUAAAGUGAAACAUGAGGAUCACCCAUGUAAUUUUAUGGAUGUAAAUAGAAGGCUCAUUUU [Mat - Exclusion 5 - JL mod - D2] (puzzle: Exclusion 5) |  |  |  | 34.2 | 27.8 | 34.7
24 | AAUCAGUGUGUGAGGAUAUUGGUGGAAUGACUUAUUAAGAAGGCACAUGAGGAUCACCCAUGUGGGAAGUCACG [JR_BMEx4_Sub016] (Eterna round: R97, puzzle: Brourd's mod of Exclusion 4) | 11.6 |  | 12.8 |  |  | 
